From paper PMC12199161, “Structural and functional studies of the main replication protein NS1 of human parvovirus B19” (Nucleic Acids Research, 2025) come the findings set out here.

Several values for one entry are separate records, joined by “and”; a condition that tells them apart may be missing. Identical values can stand only once.

The target of data set [1] is T1, NS1_2-570 (Human parvovirus B19 isolate AU, UniProt P07298).
T1 construct: gene NS1; residues 2-570 of 671 (Nuc, OD, SF3 HD, TAD; ZnD missing); N-terminal His-MBP tag, TEV-treated; codon-optimized cDNA; E. coli Rosetta (DE3); monomer 62 kDa; ~830 kDa oligomer by gel filtration
The data set is described as follows: cryo-EM structure of complex. The format is binding. To be noted: Mg2+ (5 mM MgCl2 in DNA complexes); Walker A site, one AMPPNP per protomer; DNA-free dodecamer; also ternary complexes with ssDNA (3.3 Å, hexamer) and dsDNA (3.43 Å, dodecamer).

Data set [2] deals with the molecule itself. The data set is described as follows: cryo-EM structure.
Data set [3] concerns the molecule itself. The data set can be described thus: SEC; NS1_200-501 (WT and 3G mutant) on Superdex 200 Increase 10/30 GL.
For data set [4], the target named is NS1_2-570 (Human parvovirus B19 (B19V), UniProt I7BP20 2-570). The data set is described as follows: EMSA; no ATP or Mg2+ listed. To be noted: protein: recombinant; tags: N-terminal His6-MBP, TEV protease treated; chain copies: 12; label: 5'-FAM on top strand; blunt.

T1 sequence (P07298 2-570): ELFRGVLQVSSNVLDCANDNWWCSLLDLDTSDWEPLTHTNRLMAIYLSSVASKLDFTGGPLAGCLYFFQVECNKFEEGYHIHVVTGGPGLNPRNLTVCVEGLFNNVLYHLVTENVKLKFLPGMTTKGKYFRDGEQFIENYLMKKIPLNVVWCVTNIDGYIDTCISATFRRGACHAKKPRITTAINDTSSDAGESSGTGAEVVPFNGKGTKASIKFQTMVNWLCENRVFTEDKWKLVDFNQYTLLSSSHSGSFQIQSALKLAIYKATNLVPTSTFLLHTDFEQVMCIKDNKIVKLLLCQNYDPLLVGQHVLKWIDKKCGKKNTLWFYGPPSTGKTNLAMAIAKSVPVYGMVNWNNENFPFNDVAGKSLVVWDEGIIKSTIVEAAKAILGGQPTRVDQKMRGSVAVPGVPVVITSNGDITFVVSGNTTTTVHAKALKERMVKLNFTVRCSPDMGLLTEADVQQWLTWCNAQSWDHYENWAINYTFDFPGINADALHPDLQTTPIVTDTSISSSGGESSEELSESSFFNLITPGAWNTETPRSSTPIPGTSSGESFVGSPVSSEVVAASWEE

For the molecule `Nc1ncnc2c1ncn2[C@@H]1O[C@H](COP(=O)(O)OP(=O)(O)NP(=O)(O)O)[C@@H](O)[C@H]1O` [AMPPNP], the AMPPNP binding site entry in data set [1] is on record as “one AMPPNP molecule is captured at the characteristic Walker A region of each NS1 protomer”.

B1: B19V NS1_2-570 protein (domain or fragment)
chain: ELFRGVLQVSSNVLDCANDNWWCSLLDLDTSDWEPLTHTNRLMAIYLSSVASKLDFTGGPLAGCLYFFQVECNKFEEGYHIHVVIGGPGLNPRNLTVCVEGLFNNVLYHLVTENVKLKFLPGMTTKGKYFRDGEQFIENYLMKKIPLNVVWCVTNIDGYIDTCISATFRRGACHAKKPRITTAINDTSSDAGESSGTGAEVVPFNGKGTKASIKFQTMVNWLCENRVFTEDKWKLVDFNQYTLLSSSHSGSFQIQSALKLAIFKATNLVPTSTFLLHTDFEQVMCIKDNKIVKLLLCQNYDPLLVGQHVLKWIDKKCGKKNTLWFYGPPSTGKTNLAMAIAKSVPVYGMVNWNNENFPFNDVAGKSLVVWDEGIIKSTIVEAAKAILGGQPTRVDQKMRGSVAVPGVPVVITSNGDITFVVSGNTTTTVHAKALKERMVKLNFTVRCSPDMGLLTEADVQQWLTWCNAQSWDHYENWAINYTFDFPGINADALHPDLQTTPIVTDTSISSSGGESSEELSESSFFNLITPGAWNTETPRSSTPIPGTSSGESFVGSSVSSEVVAASWEE
notes: source: E. coli Rosetta (DE3), purified (HisTrap, heparin, TEV protease, HisTrap, Superose 6 gel filtration)
With B1, the “stoichiometry N” value in data set [2] is 12 and 6.

B2: NS1_200-501 protein (domain or fragment)
chain: AEVVPFNGKGTKASIKFQTMVNWLCENRVFTEDKWKLVDFNQYTLLSSSHSGSFQIQSALKLAIFKATNLVPTSTFLLHTDFEQVMCIKDNKIVKLLLCQNYDPLLVGQHVLKWIDKKCGKKNTLWFYGPPSTGKTNLAMAIAKSVPVYGMVNWNNENFPFNDVAGKSLVVWDEGIIKSTIVEAAKAILGGQPTRVDQKMRGSVAVPGVPVVITSNGDITFVVSGNTTTTVHAKALKERMVKLNFTVRCSPDMGLLTEADVQQWLTWCNAQSWDHYENWAINYTFDFPGINADALHPDLQTT
notes: source: E. coli Rosetta (DE3), purified
As to B2, in data set [3], the “stoichiometry N” value was found to be 12.

B3: duplex DNA-1 (dsDNA)
DNA 1: AAGAAGACACCAAATCAGATGCCGCCGGTCGCCGCCGGTAGGCGGGAC
DNA 2: GTCCCGCCTACCGGCGGCGACCGGCGGCATCTGATTTGGTGTCTTCTT
As for B3, the binding result in data set [4] was “binds”.

As usually defined, the stoichiometry N is a count of units in the complex or per binding partner.
